# Measurements: paper PMC6093294
# Key:
# Experiment in all cases: purified protein
# purified protein [1] = substrate: NCCc1c[nH]c2ccccc12; type: biochemical, Bombyx mori; settings: 100 μM oleoyl-CoA, 300 mM Tris pH 8.0, 150 μM DTNB, 22°C
# purified protein [2] = substrate: NCCc1ccc(O)cc1; type: biochemical, Bombyx mori; settings: 100 μM oleoyl-CoA, 300 mM Tris pH 8.0, 150 μM DTNB, 22°C
# purified protein [3] = substrate: CCCCC/C=C\C/C=C\C/C=C\C/C=C\CCCC(=O)SCCNC(=O)CCNC(=O)[C@H](O)C(C)(C)COP(=O)(O)OP(=O)(O)OC[C@H]1O[C@@H](n2cnc3c(N)ncnc32)[C@H](O)[C@@H]1OP(=O)(O)O; type: biochemical, Bombyx mori; settings: 60 mM tryptamine, 300 mM Tris pH 8.0, 150 μM DTNB, 22°C
# purified protein [4] = substrate: CCCCCCCCCCCCCC(=O)SCCNC(=O)CCNC(=O)[C@H](O)C(C)(C)COP(=O)(O)OP(=O)(O)OC[C@H]1O[C@@H](n2cnc3c(N)ncnc32)[C@H](O)[C@@H]1OP(=O)(O)O; type: biochemical, Bombyx mori; settings: 60 mM tryptamine, 300 mM Tris pH 8.0, 150 μM DTNB, 22°C
# purified protein [5] = substrate: CCCCCCCCCCCC(=O)SCCNC(=O)CCNC(=O)[C@H](O)C(C)(C)COP(=O)(O)OP(=O)(O)OC[C@H]1O[C@@H](n2cnc3c(N)ncnc32)[C@H](O)[C@@H]1OP(=O)(O)O; type: biochemical, Bombyx mori; settings: 60 mM tryptamine, 300 mM Tris pH 8.0, 150 μM DTNB, 22°C
# purified protein [6] = substrate: NC[C@H](O)c1ccc(O)cc1; type: biochemical, Bombyx mori; settings: 100 μM oleoyl-CoA, 300 mM Tris pH 8.0, 150 μM DTNB, 22°C
# purified protein [7] = substrate: CCCCCCCC/C=C\CCCCCCCC(=O)SCCNC(=O)CCNC(=O)[C@H](O)C(C)(C)COP(=O)(O)OP(=O)(O)OC[C@H]1O[C@@H](n2cnc3c(N)ncnc32)[C@H](O)[C@@H]1OP(=O)(O)O; type: biochemical, Bombyx mori; settings: 60 mM tryptamine, 300 mM Tris pH 8.0, 150 μM DTNB, 22°C
# purified protein [8] = substrate: CCCCCCCCCCCCCCCC(=O)SCCNC(=O)CCNC(=O)[C@H](O)C(C)(C)COP(=O)(O)OP(=O)(O)OC[C@H]1O[C@@H](n2cnc3c(N)ncnc32)[C@H](O)[C@@H]1OP(=O)(O)O; settings: 60 mM tryptamine, 300 mM Tris pH 8.0, 150 μM DTNB, 22°C
protein,measurement,setting,value
Bm-iAANAT (insect arylalkylamine N-acyltransferase from Bombyx mori) (Bombyx mori) (protein) MAVTSTRGIVNLKEKGHFERENARVEKYTLGDELPAQLSSLEIRPRKMSVPAYTIQRLTYNDRDLVLKFLRRFFFRDEPMNLAVNLLETPESRCTELDDYAAATLSDGVSVAAVDENGDYVGVIINGIVRREEVDYTDKSEDCPNPKFRRILKVLGHLDREARIWDKLPETCDSVLEIRIASTHSSWRGRGLMRVLCEEAERLAKAMGAGALRMDTTSAFSAAAAERLNYKMAFGVRYADLPYAPQPEAPHLEARVYIKEL,Km,purified protein [1],7000 ± 500 µM
same,kcat,purified protein [1],0.72 ± 0.01 s⁻¹
same,kcat/Km,purified protein [1],100 ± 7 M⁻¹ s⁻¹
same,Km,purified protein [2],84000 ± 12000 µM
same,kcat,purified protein [2],2.7 ± 0.19 s⁻¹
same,kcat/Km,purified protein [2],32 ± 5.3 M⁻¹ s⁻¹
same,Km,purified protein [3],1.2 ± 0.67 µM
same,kcat,purified protein [3],0.27 ± 0.02 s⁻¹
same,kcat/Km,purified protein [3],240000 ± 130000 M⁻¹ s⁻¹
same,Km,purified protein [4],0.92 ± 0.20 µM
same,kcat,purified protein [4],0.66 ± 0.01 s⁻¹
same,kcat/Km,purified protein [4],720000 ± 150000 M⁻¹ s⁻¹
same,Km,purified protein [5],0.97 ± 0.12 µM
same,Km,purified protein [6],65000 ± 16000 µM
same,kcat,purified protein [6],0.31 ± 0.04 s⁻¹
same,kcat/Km,purified protein [6],4.7 ± 1.2 M⁻¹ s⁻¹
same,Km,purified protein [7],1.7 ± 0.51 µM
same,kcat,purified protein [7],0.42 ± 0.02 s⁻¹
same,kcat/Km,purified protein [7],240000 ± 70000 M⁻¹ s⁻¹
same,Km,purified protein [8],1.1 ± 0.30 µM
same,kcat,purified protein [8],0.51 s⁻¹
same,kcat/Km,purified protein [8],490000 M⁻¹ s⁻¹
